The target in this experiment is LRP2 (megalin) (Mus musculus, UniProt A2ARV4). In words: SPR.

B1: RAP (receptor-associated protein) (protein)
chain: YSREKNQPKPSPKRESGEEFRMEKLNQLWEKAQRLHLPPVRLAELHADLKIQERDELAWKKLKLDGLDEDGEKEARLIRNLNVILAKYGLDGKKDARQVTSNSLSGTQEDGLDDPRLEKLWHKAKTSGKFSGEELDKLWREFLHHKEKVHEYNVLLETLSRTEEIHENVISPSDLSDIKGSVLHSRHTELKEKLRSINQGLDRLRRVSHQGYSTEAEFEEPRVIDLWDLAQSANLTDKELEAFREELKHFEAKIEKHNHYQKQLEIAHEKLRHAESVGDGERVSRSREKHALLEGRTKELGYTVKKHLQDLSGRISRARHNEL
B1: the dissociation constant (Kd) was 5.8 nM.

Source of the values: article PMC9993842 (2023).
